Assay [1] has as its target T1, CD64 (UniProt P12314 16-288).
T1 construct: also called FCRI
As to the kind of experiment: SPR Biacore 8K, CD64 captured by anti-His antibody, antibody as analyte, 1:1 binding fit. On the procedure: 2 μg/mL CD64 in running buffer (1×HBS-EP+) was injected to Fc2 of channel 1-4 at a flow rate of 10 μL/min for 30 s. 6 concentrations (40, 20, 10, 5, 2.5 and 1.25 nM) of analyte 20170905-Ab #C-02, 20170905-Ab #D-02, 20170908-Ab #G-02, 20170920-Ab #H-02 and running buffer were injected orderly to Fc1-Fc2 of channel 1-4 at a flow rate of 30 μL/min for an association phase of 180, followed by 400 dissociation. Repeat 6 cycles of capturing ligand and running analyte according to analyte concentrations in ascending order. 10 mM glycine pH 1.5 as regeneration buffer was injected following every dissociation phase.
(§1) Surface channels Fc1 without capturing ligand was used as control surface for reference subtraction. Final data of each interaction w as deducted from reference channel and buffer channel data. The experimental data of 20170905-Ab #C-02, 20170905-Ab #D-02, 20170908-Ab #G-02, 20170920-Ab #H-02 binding to CD64 was fitted by 1:1 binding mode. The 10240 nM curves of analyte 20170907-Ab #K-02, 20170908-Ab #L-02, 20170915-Ab #O-02, 20170919-Ab #P-02, 20170919-Ab #S-02 and 20170920-Ab #T-02 were removed to allow a better fit.

In another assay the target is T2, human FcRn (human, UniProt P55899 24-297; P61769 21-119).
T2 construct: The b2m chain is my addition
As to the kind of experiment: SPR Biacore 8K, antibody amine-coupled to CM5, FcRn as analyte, pH 6.0, steady state affinity fit. The protocol: The activator was prepared by mixing 400 mM EDC and 100 mM NHS (GE) immediately prior to injection. The CM5 sensor chip was activated for 420 s with the mixture at a flow rate of 10 μL/min. 5 μg/mL of antibodies in 10 mM NaAc (pH 5.5) were then injected to Fc2 of channel 1-8 respectively at a flow rate of 10 μL/min for 60 s. The relative Fc1 was blocked. The chip w as deactivated by 1 M ethanolamine-HCl (GE) at a flow rate of 10 μL/min for 420 s.
Analyte FcRn was injected to channel 1-8 respectively. 8 concentrations of FcRn (0, 93.75, 187.5, 375, 750, 1500, 3000 and 6000 nM) were monitored at a flow rate of 30 μL/min for an association phase of 60 s, followed by 90 s dissociation. After each cycle of interaction analysis, the sensor chip surface was regenerated with 1×PBS (pH 7.4) at a flow rate of 10 μL/min for 30 s.
Surface channels Fc1 without immobilized antibodies were used as control surface for reference subtraction. Final data of each interaction was deducted from reference channel and buffer channel data.

For assay [2], the target named is T3, C1q (UniProt P02745 23-245; P02746 28-253; P02747 29-245).
T3 construct: also called Clq
As to the kind of experiment: ELISA, antibody coated at 3 µg/mL, C1q titrated. On the procedure: (§2) Plates (Nunc) were coated with antibodies at 3 μg/mL overnight at 4° C. After blocking and washing, Clq was half-log titrated in blocking buffer (600, 189.75, 60.01, 18.98, 6.00, 1.90, 0.60, 0.19, 0.06 and 0.02 μg/mL) and incubated at room temperature for 2 h. The plates were then washed and subsequently incubated with secondary antibody Sheep anti-human Clq Ab-HRP for 1 h. After washing, TMB substrate was added and the interaction was stopped by 2M HCl.

Assay [3] has as its target T4, Cx43 (peptide used in the Biacore affinity assay of Example 1).
T4 construct: also called connexin 43; PEP1 (914)
Briefly: SPR Biacore T200, antibody and Cx43 peptide; format and peptide not given.

In the next assay the target is T5, FcγRIIa (UniProt P12318 36-218, limits assumed).
T5 construct: also called FCRIIa
T5 sequence (looked up): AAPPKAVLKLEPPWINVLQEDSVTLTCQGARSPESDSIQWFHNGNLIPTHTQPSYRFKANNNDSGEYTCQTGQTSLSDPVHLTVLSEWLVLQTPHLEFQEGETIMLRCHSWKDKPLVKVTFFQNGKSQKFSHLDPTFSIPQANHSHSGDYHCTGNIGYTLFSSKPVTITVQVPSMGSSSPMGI
As to the kind of experiment: SPR Biacore 8K, receptor captured by anti-His antibody, antibody as analyte, steady state affinity fit; unit inferred. The protocol:
1 μg/mL FcγRIIa, FcγRIIb, FcγRIIIa, or FcγRIIIb in running buffer (1×HBS-EP+) was injected to Fc2 of channel 1-8 at a flow rate of 10 μL/min for 15 s. Analytes were injected to channel 1-8 respectively. A series of analyte concentrations (seeing Table 3 below) were monitored at a flow rate of 30 μL/min for an association phase of 60 s, followed by 90 s dissociation. 10 mM glycine pH 1.5 as regeneration buffer was injected following every dissociation phase.
Surface channels Fc1 without capturing ligand was used as control surface for reference subtraction. Final data of each interaction was deducted from reference channel and buffer channel data. The experimental data of antibodies binding to FcγRIIa, FcγRIIb, FcγRIIIa, and FcγRIIIb was fitted by steady state affinity mode and shown in Table 4 below.

For assay [4], the target named is T3, C1q. Briefly: ELISA, antibody coated at 3 µg/mL, C1q titrated, anti-human C1q-HRP detection. The protocol: as §2
The target in assay [5] is T1, CD64. Briefly: SPR Biacore 8K, CD64 captured by anti-His antibody, antibody as analyte, steady state affinity fit; steady state affinity fit; no ka/kd. The protocol:
(§3) 2 μg/mL CD64 in running buffer (1×HBS-EP+) was injected to Fc2 of channel 1-6 at a flow rate of 10 μL/min for 30 s. […] Repeat 8 cycles of capturing ligand and running analyte according to analyte concentrations in ascending order. 10 mM glycine pH 1.5 as regeneration buffer was injected following every dissociation phase.
as §1

Assay [6] concerns the target T1, CD64. As to the kind of experiment: SPR Biacore 8K, CD64 captured by anti-His antibody, antibody as analyte, steady state affinity fit. The protocol:
as §3, §1

T2 sequence (P55899 24-297 limits assumed, chain 1 of 2): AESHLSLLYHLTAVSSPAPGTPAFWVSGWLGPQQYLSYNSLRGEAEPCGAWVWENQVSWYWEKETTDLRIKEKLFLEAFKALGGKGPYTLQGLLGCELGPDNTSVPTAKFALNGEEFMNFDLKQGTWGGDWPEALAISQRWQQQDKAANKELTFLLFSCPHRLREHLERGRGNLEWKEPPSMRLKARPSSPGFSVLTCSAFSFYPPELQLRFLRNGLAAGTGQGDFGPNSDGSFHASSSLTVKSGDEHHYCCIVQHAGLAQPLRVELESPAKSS
T2 sequence (P61769 21-119 limits assumed, chain 2 of 2): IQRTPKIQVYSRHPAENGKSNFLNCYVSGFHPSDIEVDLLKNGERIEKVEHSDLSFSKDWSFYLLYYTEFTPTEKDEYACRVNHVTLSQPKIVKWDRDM
T3 sequence (P02745 23-245, chain 1 of 3): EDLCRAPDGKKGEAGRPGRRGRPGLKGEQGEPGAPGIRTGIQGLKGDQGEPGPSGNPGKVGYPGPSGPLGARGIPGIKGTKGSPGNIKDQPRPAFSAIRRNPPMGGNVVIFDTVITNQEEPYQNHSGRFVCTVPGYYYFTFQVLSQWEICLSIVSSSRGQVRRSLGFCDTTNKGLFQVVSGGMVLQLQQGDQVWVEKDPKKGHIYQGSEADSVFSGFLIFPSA
T3 sequence (P02746 28-253, chain 2 of 3): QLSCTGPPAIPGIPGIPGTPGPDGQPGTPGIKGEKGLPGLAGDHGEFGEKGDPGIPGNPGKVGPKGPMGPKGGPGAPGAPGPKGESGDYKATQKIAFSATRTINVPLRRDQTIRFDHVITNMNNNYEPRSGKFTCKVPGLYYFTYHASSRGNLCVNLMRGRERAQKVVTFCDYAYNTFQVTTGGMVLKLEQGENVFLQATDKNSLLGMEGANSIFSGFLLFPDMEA
T3 sequence (P02747 29-245, chain 3 of 3): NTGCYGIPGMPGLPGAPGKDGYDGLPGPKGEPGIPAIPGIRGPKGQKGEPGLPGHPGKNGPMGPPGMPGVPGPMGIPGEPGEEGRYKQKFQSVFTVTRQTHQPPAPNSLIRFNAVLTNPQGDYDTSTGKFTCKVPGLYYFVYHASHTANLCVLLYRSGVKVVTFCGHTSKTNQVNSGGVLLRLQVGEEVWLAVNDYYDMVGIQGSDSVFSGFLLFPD
T1 sequence (P12314 16-288 limits assumed): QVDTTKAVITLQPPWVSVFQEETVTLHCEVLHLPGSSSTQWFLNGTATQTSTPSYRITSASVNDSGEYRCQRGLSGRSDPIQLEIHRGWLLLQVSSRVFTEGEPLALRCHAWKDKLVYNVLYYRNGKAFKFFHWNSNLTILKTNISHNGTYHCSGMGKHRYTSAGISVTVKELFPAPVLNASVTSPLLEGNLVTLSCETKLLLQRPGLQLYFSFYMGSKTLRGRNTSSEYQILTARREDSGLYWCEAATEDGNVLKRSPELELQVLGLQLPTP

B1: Ab#H (antibody, human IgG4 S228P, kappa)
heavy: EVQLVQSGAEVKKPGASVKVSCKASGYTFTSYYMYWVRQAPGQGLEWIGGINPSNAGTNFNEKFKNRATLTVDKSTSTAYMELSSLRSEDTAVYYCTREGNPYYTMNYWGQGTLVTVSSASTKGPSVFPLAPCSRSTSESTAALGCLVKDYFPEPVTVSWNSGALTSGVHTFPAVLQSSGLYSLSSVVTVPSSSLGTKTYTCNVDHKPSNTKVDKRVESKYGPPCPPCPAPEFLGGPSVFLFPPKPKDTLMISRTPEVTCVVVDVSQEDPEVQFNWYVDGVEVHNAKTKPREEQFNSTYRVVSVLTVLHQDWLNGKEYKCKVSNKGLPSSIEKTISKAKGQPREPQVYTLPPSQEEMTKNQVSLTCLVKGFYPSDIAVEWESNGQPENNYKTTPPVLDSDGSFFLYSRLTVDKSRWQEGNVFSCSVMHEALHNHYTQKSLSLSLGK
light: DVVMTQSPLSLPVTIGQPASISCKSSQSLLESDGKTYLNWLQQRPGQSPRRLIYLVSKLDSGVPDRFSGSGSGTDFTLKISRVEAEDVGVYYCWQGTHFPWTFGGGTKVEIKRTVAAPSVFIFPPSDEQLKSGTASVVCLLNNFYPREAKVQWKVDNALQSGNSQESVTEQDSKDSTYSLSSTLTLSKADYEKHKVYACEVTHQGLSSPVTKSFNRGEC
notes: also called 20170920-Ab #H-02; Mab H
Regarding B1, the Kd stood at 5.73 nM with CD64 [1], 2610 nM with human FcRn and 46.5 nM in assay [3]. Further, in the assay with CD64 [1], the koff came out at 0.00318 s⁻¹. The on-rate (kon) with CD64 [1] is 554000 M⁻¹ s⁻¹. Also, in the assay with C1q [2], the binding result was “no binding”.

B2: Ab#D (antibody, human IgG1, kappa)
heavy: not shown
light: DVVMTQSPLSLPVTIGQPASISCKSSQSLLESDGKTYLNWLQQRPGQSPRRLIYLVSKLDSGVPDRFSGSGSGTDFTLKISRVEAEDVGVYYCWQGTHFPWTFGGGTKVEIKRTVAAPSVFIFPPSDEQLKSGTASVVCLLNNFYPREAKVQWKVDNALQSGNSQESVTEQDSKDSTYSLSSTLTLSKADYEKHKVYACEVTHQGLSSPVTKSFNRGEC
notes: Light chain tie is indirect; also called 20170905-Ab #D-02
On to B2, for which the Kd with CD64 [1] was 1.92 nM; with human FcRn, 2250 nM; in the assay with FcγRIIa it was 3390 nM; in assay [3] it was 198 nM; in the assay with C1q [4] it was 75 nM. The same molecule displayed a koff with CD64 [1] of 0.000925 s⁻¹. In the assay with CD64 [1], this molecule yielded a kon of 482000 M⁻¹ s⁻¹.

B3: Ab#L (antibody, human IgG1, kappa, L234A L235A)
heavy: not shown
light: DVVMTQSPLSLPVTIGQPASISCKSSQSLLESDGKTYLNWLQQRPGQSPRRLIYLVSKLDSGVPDRFSGSGSGTDFTLKISRVEAEDVGVYYCWQGTHFPWTFGGGTKVEIKRTVAAPSVFIFPPSDEQLKSGTASVVCLLNNFYPREAKVQWKVDNALQSGNSQESVTEQDSKDSTYSLSSTLTLSKADYEKHKVYACEVTHQGLSSPVTKSFNRGEC
notes: also called 20170908-Ab #L-02
For B3, the Kd with human FcRn was 2600 nM; in the assay with CD64 [5], 1620 nM; in assay [3] it was 10.1 nM.

B4: Ab#T (antibody, human IgG4 S228P, kappa, F234A L235A)
heavy: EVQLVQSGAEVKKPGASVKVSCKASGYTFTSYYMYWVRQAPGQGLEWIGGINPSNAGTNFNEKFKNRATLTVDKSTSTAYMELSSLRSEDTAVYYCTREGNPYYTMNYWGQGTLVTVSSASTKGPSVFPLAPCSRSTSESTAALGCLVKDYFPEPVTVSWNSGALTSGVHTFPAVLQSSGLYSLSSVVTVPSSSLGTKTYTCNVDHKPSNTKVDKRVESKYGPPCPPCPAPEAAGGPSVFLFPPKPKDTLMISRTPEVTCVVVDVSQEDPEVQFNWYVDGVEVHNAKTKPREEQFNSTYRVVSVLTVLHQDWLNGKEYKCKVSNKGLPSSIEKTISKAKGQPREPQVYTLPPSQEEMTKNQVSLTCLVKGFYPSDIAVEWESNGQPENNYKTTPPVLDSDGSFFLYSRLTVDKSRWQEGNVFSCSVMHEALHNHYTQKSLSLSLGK
light: DVVMTQSPLSLPVTIGQPASISCKSSQSLLESDGKTYLNWLQQRPGQSPRRLIYLVSKLDSGVPDRFSGSGSGTDFTLKISRVEAEDVGVYYCWQGTHFPWTFGGGTKVEIKRTVAAPSVFIFPPSDEQLKSGTASVVCLLNNFYPREAKVQWKVDNALQSGNSQESVTEQDSKDSTYSLSSTLTLSKADYEKHKVYACEVTHQGLSSPVTKSFNRGEC
notes: also called 20170920-Ab #T-02
On to B4, for which the Kd with CD64 [6] turned out to be 3050 nM; with human FcRn it was 2560 nM; in assay [3], 0.582 nM. Besides, the binding result in the assay with C1q [2] is on record as “no binding”.

B5: Ab#P (antibody, human IgG4 S228P, kappa)
heavy: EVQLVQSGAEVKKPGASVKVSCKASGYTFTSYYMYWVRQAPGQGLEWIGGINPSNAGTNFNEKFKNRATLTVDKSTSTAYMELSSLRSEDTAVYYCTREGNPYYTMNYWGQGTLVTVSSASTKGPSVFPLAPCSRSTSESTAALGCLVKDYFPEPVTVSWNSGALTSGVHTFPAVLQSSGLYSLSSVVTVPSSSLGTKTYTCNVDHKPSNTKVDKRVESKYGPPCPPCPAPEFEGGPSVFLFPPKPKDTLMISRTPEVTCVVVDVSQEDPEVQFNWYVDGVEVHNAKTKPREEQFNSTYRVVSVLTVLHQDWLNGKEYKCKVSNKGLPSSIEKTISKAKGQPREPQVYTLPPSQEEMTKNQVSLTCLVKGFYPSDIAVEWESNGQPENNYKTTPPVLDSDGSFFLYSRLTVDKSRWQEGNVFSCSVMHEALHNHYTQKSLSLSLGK
light: DVVMTQSPLSLPVTIGQPASISCKSSQSLLESDGKTYLNWLQQRPGQSPRRLIYLVSKLDSGVPDRFSGSGSGTDFTLKISRVEAEDVGVYYCWQGTHFPWTFGGGTKVEIKRTVAAPSVFIFPPSDEQLKSGTASVVCLLNNFYPREAKVQWKVDNALQSGNSQESVTEQDSKDSTYSLSSTLTLSKADYEKHKVYACEVTHQGLSSPVTKSFNRGEC
As for B5, the Kd with CD64 [6] was 2790 nM; with human FcRn it was 2550 nM; in assay [3], 8.58 nM. Also, in the assay with C1q [2], the binding result was “no binding”.
